IntAct's records for PubMed 21134644

Key:
itb1_human ITGB1 = itb1_human ITGB1 (UniProt P05556)
Chain of itb1_human ITGB1 (P05556 whole entry): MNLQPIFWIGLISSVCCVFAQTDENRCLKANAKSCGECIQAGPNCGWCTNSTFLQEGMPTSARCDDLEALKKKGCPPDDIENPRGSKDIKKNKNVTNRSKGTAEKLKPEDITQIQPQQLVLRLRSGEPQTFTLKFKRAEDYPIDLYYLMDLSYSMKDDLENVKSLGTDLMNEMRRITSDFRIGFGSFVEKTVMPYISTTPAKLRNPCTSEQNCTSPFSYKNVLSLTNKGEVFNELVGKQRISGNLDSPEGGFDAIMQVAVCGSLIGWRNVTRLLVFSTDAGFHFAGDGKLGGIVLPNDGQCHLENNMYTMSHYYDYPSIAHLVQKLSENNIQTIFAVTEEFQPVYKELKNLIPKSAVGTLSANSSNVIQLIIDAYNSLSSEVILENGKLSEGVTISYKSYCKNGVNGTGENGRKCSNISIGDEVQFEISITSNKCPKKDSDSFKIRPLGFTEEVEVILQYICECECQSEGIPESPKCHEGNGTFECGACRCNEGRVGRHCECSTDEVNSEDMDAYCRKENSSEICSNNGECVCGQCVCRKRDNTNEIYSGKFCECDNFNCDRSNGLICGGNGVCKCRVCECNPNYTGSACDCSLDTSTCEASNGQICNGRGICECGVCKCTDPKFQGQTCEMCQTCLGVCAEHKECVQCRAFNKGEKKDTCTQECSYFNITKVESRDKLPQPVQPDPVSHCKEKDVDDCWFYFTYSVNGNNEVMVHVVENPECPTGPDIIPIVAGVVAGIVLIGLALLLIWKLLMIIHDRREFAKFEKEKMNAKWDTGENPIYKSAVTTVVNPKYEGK

Chain of ITGB1, P05556-5 (P05556 other isoform, or with tags, fused parts or gaps): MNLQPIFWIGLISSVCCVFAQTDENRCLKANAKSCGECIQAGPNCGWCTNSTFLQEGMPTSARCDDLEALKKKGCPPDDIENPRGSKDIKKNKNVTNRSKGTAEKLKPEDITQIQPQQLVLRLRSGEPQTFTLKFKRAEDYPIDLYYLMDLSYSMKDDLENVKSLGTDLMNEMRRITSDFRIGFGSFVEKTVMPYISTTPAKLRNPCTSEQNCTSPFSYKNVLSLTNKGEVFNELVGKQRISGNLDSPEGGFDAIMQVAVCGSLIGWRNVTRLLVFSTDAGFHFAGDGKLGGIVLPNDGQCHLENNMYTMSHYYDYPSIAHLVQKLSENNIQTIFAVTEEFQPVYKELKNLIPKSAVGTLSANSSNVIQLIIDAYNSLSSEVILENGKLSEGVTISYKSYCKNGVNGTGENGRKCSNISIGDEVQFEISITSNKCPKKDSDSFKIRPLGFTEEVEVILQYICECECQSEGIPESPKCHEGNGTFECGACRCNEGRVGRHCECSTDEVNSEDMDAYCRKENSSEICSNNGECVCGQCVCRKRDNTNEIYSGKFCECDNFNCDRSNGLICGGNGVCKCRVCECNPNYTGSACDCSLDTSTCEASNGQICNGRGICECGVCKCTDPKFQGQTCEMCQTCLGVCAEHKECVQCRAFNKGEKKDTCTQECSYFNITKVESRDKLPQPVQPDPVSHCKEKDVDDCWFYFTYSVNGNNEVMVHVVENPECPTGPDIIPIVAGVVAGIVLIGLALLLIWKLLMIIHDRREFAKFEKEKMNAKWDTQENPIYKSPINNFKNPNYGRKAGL

effect of a mutation on the interaction (ITGB1, P05556-5): decreasing interaction
effect of a mutation on the interaction (itb1_human ITGB1): disrupting interaction
Substance: Talin-2 (Mus musculus), Q71LX4 Y376A
